Test results from article PMC12355471, “Clear Native Gel Electrophoresis for the Purification of Fluorescently Labeled Membrane Proteins in Native Nanodiscs” (Analytical Chemistry, 2025).
Like-named read-outs stand apart in the source and are kept apart here.

Columns and labels:
[1] = target: voltage-gated potassium ion channel KvAP (Aeropyrum pernix) (UniProt Q9YDF8); assay: native gel or EMSA; detergent-free clear native PAGE (CNE) of Glyco-DIBMA nanodiscs, 4 °C, fluorescence imaging
[2] = target: voltage-gated potassium ion channel KvAP (Aeropyrum pernix) (UniProt Q9YDF8); assay: SEC; Glyco-DIBMA native nanodiscs with labelled protein after Ni2+ affinity chromatography; absorbance at 280, 650 and 665 nm; oligomer peak at 10-11 mL
[3] = target: voltage-gated potassium ion channel KvAP (Aeropyrum pernix) (UniProt Q9YDF8); assay: native gel or EMSA; high-resolution clear native PAGE (hrCNE) with 0.01% DDM and 0.05% sodium deoxycholate, Glyco-DIBMA nanodiscs, 4 °C, fluorescence imaging
[4] = target: voltage-gated potassium ion channel KvAP (Aeropyrum pernix) (UniProt Q9YDF8); assay: fluorescence correlation spectroscopy (molecular brightness per nanodisc); Alexa Fluor 647-labelled protein in Glyco-DIBMA native nanodiscs; oligomer fraction after SEC and bands resolubilised from native gels; brightness compared with the free dye (ruler, 7.5 kHz); nM concentrations; standard buffer 150 mM NaCl or KCl, 50 mM Tris-HCl, pH 8
[5] = target: voltage-gated potassium ion channel KvAP (Aeropyrum pernix) (UniProt Q9YDF8); assay: as above; remark: listed apart in the source
[6] = target: voltage-gated sodium ion channel NavMs; assay: SEC; Glyco-DIBMA native nanodiscs with labelled protein after Ni2+ affinity chromatography; absorbance at 280, 650 and 665 nm; oligomer peak at 10-11 mL
[7] = target: voltage-gated sodium ion channel NavMs; assay: native gel or EMSA; high-resolution clear native PAGE (hrCNE) with 0.01% DDM and 0.05% sodium deoxycholate, Glyco-DIBMA nanodiscs, 4 °C, fluorescence imaging
[8] = target: voltage-gated sodium ion channel NavMs; assay: fluorescence correlation spectroscopy (molecular brightness per nanodisc); Alexa Fluor 647-labelled protein in Glyco-DIBMA native nanodiscs; oligomer fraction after SEC and bands resolubilised from native gels; brightness compared with the free dye (ruler, 7.5 kHz); nM concentrations; standard buffer 150 mM NaCl or KCl, 50 mM Tris-HCl, pH 8
[9] = target: the molecule itself; assay: SEC; Glyco-DIBMA native nanodiscs with labelled protein after Ni2+ affinity chromatography; absorbance at 280, 650 and 665 nm; oligomer peak at 10-11 mL
[10] = target: the molecule itself; assay: fluorescence correlation spectroscopy (molecular brightness per nanodisc); Alexa Fluor 647-labelled protein in Glyco-DIBMA native nanodiscs; oligomer fraction after SEC and bands resolubilised from native gels; brightness compared with the free dye (ruler, 7.5 kHz); nM concentrations; standard buffer 150 mM NaCl or KCl, 50 mM Tris-HCl, pH 8

voltage-gated potassium ion channel KvAP (from UniProt Q9YDF8 1-295) (natural protein)
stoichiometry N [1]: 4 | stoichiometry N [2]: 4 | stoichiometry N [3]: 4 | ratio of molecular brightness to the free dye (taken as the oligomeric state) [4]: 5.5 fold | ratio of molecular brightness to the free dye (taken as the oligomeric state) [5]: 4 fold

voltage-gated sodium ion channel NavMs (natural protein)
stoichiometry N [6]: 4 | stoichiometry N [7]: 4 | ratio of molecular brightness to the free dye (taken as the oligomeric state) [8]: 3 fold

B1: glycerol uptake facilitator protein (GlpF) (natural protein, UniProt P0AER0 1-281, looked up)
chain: MSQTSTLKGQCIAEFLGTGLLIFFGVGCVAALKVAGASFGQWEISVIWGLGVAMAIYLTAGVSGAHLNPAVTIALWLFACFDKRKVIPFIVSQVAGAFCAAALVYGLYYNLFFDFEQTHHIVRGSVESVDLAGTFSTYPNPHINFVQAFAVEMVITAILMGLILALTDDGNGVPRGPLAPLLIGLLIAVIGASMGPLTGFAMNPARDFGPKVFAWLAGWGNVAFTGGRDIPYFLVPLFGPIVGAIVGAFAYRKLIGRHLPCDICVVEEKETTTPSEQKASL
modifications: Alexa Fluor 647 maleimide on cysteine (six cysteine positions, not all can be labeled)
notes: glycerol uptake facilitator protein GlpF, a bacterial aquaporin; Studied inside Glyco-DIBMA native nanodiscs; A monomeric fraction was also found; also called bacterial aquaporin; aqua(glycero)porin GlpF
stoichiometry N [9]: 4

B2: urea channel HpUreI L134C (natural protein)
chain: MLGLVLLYVGIVLISNGICGLTKVDPKSTAVMNFFVGGLSIICNIVVITYSALHPTAPVEGAEDIAQVSHHLTSFYGPATGLLFGFTYLYAAINHTFGLDWRPYSWYSLFVAINTIPAAILSHYSDMLDDHKVCGITEGDWWAIIWLAWGVLWLTAFIENILKIPLGKFTPWLAIIEGILTAWIPAWLLFIQHWV
modifications: Alexa Fluor 647 maleimide on the cysteine of L134C
notes: urea channel UreI (HpUreI); Studied inside Glyco-DIBMA native nanodiscs; also called bacterial hexameric urea channel
stoichiometry N [9]: 6 | ratio of molecular brightness to the free dye (taken as the oligomeric state) [10]: 6 fold
